Reference: patent US20170096490A1 (published 2017)

T1: human RANK-L (Receptor Activator of Nuclear factor Kappa B Ligand), soluble (human, UniProt O14788 140-317, limits assumed)
T1 construct: Used plain, biotinylated or ALEXA647-labeled; also called hRANK-L; sRANK-L
T1 sequence (looked up): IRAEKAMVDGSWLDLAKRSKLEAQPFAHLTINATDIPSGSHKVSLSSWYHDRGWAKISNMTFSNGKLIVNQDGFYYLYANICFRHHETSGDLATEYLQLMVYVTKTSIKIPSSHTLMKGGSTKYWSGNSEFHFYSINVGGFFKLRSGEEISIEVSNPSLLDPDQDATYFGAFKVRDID

B1: RANKL18hum3 (VHH)
VHH: EVQLVESGGGLVQPGGSLRLSCAASGRTFSRSAMGWFRQAPGKGREFVGFITGSGGTTYYADSVKGRFTISRDNAQNPVYLQMNSLRPEDTAVYYCGVYRRTYISSTYSESSEYDYWGQGTLVTVSS

How the values were obtained:
[1] = target: human RANK-L (Receptor Activator of Nuclear factor Kappa B Ligand), soluble (human) (UniProt O14788); test: cell-based or functional assay
[2] = target: T1, human RANK-L (Receptor Activator of …); test: SPR BIACORE 3000, RANK-L on CM5 chip, 100 nM Nanobody; indicative, one concentration
[3] = target: T1, human RANK-L (Receptor Activator of …); test: SPR BIACORE 3000, RANK-L on CM5 chip, 100 nM Nanobody
[4] = target: T1, human RANK-L (Receptor Activator of …); test: AlphaScreen, biotinylated RANK-L vs RANK-huFc beads

Row | IC50, NF-kappaB reporter gene assay (luciferase, HEK293T, 300 ng/ml human RANK-L) [1] [nM] | Kd [2] [nM] | kon [2] [M⁻¹ s⁻¹] | koff [3] [s⁻¹] | IC50 [4] [nM] | Molecule
1 | 6.03 | – | – | – | – | osteoprotegerin (from UniProt O00300 22-401) (receptor)
2 | – | 0.288 | 441000 | 0.000127 | 0.274 | B1
